T1: Human IL-33-his (human, UniProt O95760 112-270, biotinylated with EZ-Link NHS-Biotin where used as IL-33-his-biotin)
T1 construct: Used plain (SPR, cell assays) and biotinylated (ELISA); also called IL-33-his-biotin
T1 sequence: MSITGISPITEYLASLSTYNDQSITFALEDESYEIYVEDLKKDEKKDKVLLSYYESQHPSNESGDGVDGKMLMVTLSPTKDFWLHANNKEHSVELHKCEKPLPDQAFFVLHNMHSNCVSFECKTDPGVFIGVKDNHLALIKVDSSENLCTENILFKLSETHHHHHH


What was measured:
Human IL-33-his [1] = molecular target: T1, Human IL-33-his; experiment: competition ELISA as Example 10, ST2-Fc on plate; competitor ST2-Fc
Procedure: ST2-Fc protein was diluted to 1 μg/mL with ELISA coating solution to coat ELISA plate with 100 μL/well. The plate was placed in a wet box at 4° C. for 16 h for coating. The ELISA plate was washed 3 times with PBST, and then was blocked with 2% BSA prepared in PBS at 200 μL/well at room temperature for 2 h. The plate was washed once with PBST, and was patted dry to remove the excess blocking solution. Each monoclonal antibody was diluted with 1% BSA prepared in PBST in a 3-fold gradient. The highest concentration of antibody was 10 μg/mL, and the antibody was diluted for 11 gradients. The diluted antibody was mixed 1:1 with 10 ng/ml IL-33-his-biotin, and then the mixture was added into the ELISA well at 100 μL/well. The plate was incubated at room temperature for 1 h. Each concentration was added to duplicate wells in parallel (maximum final concentration of antibody was […], final concentration of IL-33-his-biotin was 5 ng/mL). Unbound or non-specifically bound primary antibodies were washed out. According to the instructions of the antibody, HRP labeled streptavidin secondary antibody was diluted to an appropriate concentration with antibody diluent solution, then it was added to ELISA plate with 100 μL/well, and was incubated at room temperature for 1 h. The ELISA plate was washed with PBST for 5 times, and was patted dry on absorbent paper to remove excess liquid. TMB developing solution was added with 100 μL/well for development to an appropriate degree. 2M H₂SO₄ was added with 70 μL/well to terminate development, and the absorbance was measured at 450 nm on a multifunctional microplate reader. The data were analyzed.
The blocking effect of the above humanized antibodies on the binding of IL-33 to its receptor ST2 was determined by the ELISA method, and the relevant experimental methods were referred to Example 10.

Human IL-33-his [2] = molecular target: T1, Human IL-33-his; experiment: cell-based or functional assay
Human IL-33-his [3] = molecular target: T1, Human IL-33-his; experiment: SPR Biacore 8K, antibody captured on Protein A/G chip, IL-33-his as analyte, 1:1 model
Procedure: A chip with covalently coupled Protein A/G (purchased from GE Healthcare, catalog number BR-1005-30) was used to capture each antibody to be tested, and the relevant operating parameters were as follows: The antibody concentration was […], the contact time was 75 s, the flow rate was […], and the regeneration contact time was 30 s. The IL-33-his antigen was diluted with HBS-EP pH7.4 buffer solution (purchased from GE Healthcare, catalog number BR-1006-69). The maximum concentration was 50 nM, and diluted to 0.39 nM by two-fold dilution. Duplicate wells and 0 concentration point well were set, and 6M guanidine hydrochloride solution was used as the regeneration buffer. The sample was injected on Biacore 8K according to the following parameters, the binding time was 180 s, the dissociation time was 900 s, the flow rate was 30 μL/min, and the regeneration contact time was 30 s. After running, Biacore 8K Evaluation Software was used to analyze the data according to the “1:1 binding kinetics model”, and the binding kinetics parameters of each antibody to IL-33 were obtained.

Human IL-33-his [4] = molecular target: T1, Human IL-33-his; experiment: ELISA as Example 9, IL-33-his-biotin on streptavidin plate

Binder	IC50 (Human IL-33-his [1]) [nM]	IC50 of inhibition of IFNγ secretion by NK cells induced by IL-33 (Human IL-33-his [2]) [nM]	IC50 of the inhibitory effect on IL-6 expression in HUVEC cells induced by IL-33 (Human IL-33-his [2]) [nM]	IC50 of the inhibitory effect on the IFN-γ secretion of PBMC induced by IL-33 (Human IL-33-his [2]) [nM]	Kd (Human IL-33-his [3]) [nM]	koff (Human IL-33-his [3]) [s⁻¹]	kon (Human IL-33-his [3]) [M⁻¹ s⁻¹]	EC50 (Human IL-33-his [4]) [nM]
871G1-Hu1 (antibody, human IgG4 S228P, kappa, V domains shown, Humanized; also called humanized antibody 871G1-Hu1) VH: QVQLQESGPGLVKPSETLSLTCTVSGFSLSKYGVHWIRQPPGKGLEWIGVLRAGGTISYNSALMSRVTISEDISKSQVSLKLSSVTAADTAVYYCARDHYYYSSFGGFASWGQGTLVTVSS VL: DIQMTQSPSSVSASVGDRVTITCLASQTIGAWLAWYQQKPGKSPKLLIYAATRLADGVPSRFSGSGSGTDFTLTISSLQPEDFATYYCQQLNSTPYTFGQGTKVEIKR	0.404	0.851	0.21	1.4	1.71	0.000504	295000	0.191
864F3-Hu3 (antibody, human IgG4 S228P, kappa, V domains shown, Humanized; also called humanized antibody 864F3-Hu3) VH: QVQLQESGPGLVKPSETLSLTCTVSGFSLSKYGVHWIRQPPGKGLEWIGVLRAGGTISYNSALMSRVTISVDTSKNQFSLKLSSVTAADTAVYYCARDHYYYSSFGGFASWGQGTLVTVSS VL: DIQMTQSPSSLSASVGDRVTITCLASQTIATWLAWYQQKPGKSPKLLIYAATRLADGVPSRFSGSGSGTDFTLTISSLQPEDFATYYCQQLYNTPYTFGQGTKVEIKR	–	–	–	–	–	–	–	0.138
864F3-Hu5 (antibody, human IgG4 S228P, kappa, V domains shown, Humanized; also called humanized antibody 864F3-Hu5) VH: QVQLQESGPGLVKPSETLSLTCTVSGFSLSKYGVHWIRQPPGKGLEWLGVLRAGGTISYNSALMSRLTISEDISKSQVSLKLSSVTAADTAVYYCARDHYYYSSFGGFASWGQGTLVTVSS VL: DIQMTQSPSSLSASVGDRVTITCLASQTIATWLAWYQQKPGKSPKLLIYAATRLADGVPSRFSGSGSGTDFTLTISSLQPEDFATYYCQQLYNTPYTFGQGTKVEIKR	0.473	1.02	0.147	0.839	1.36	0.000439	323000	0.146
871G1-Hu2 (antibody, human IgG4 S228P, kappa, V domains shown, Humanized; also called humanized antibody 871G1-Hu2) VH: QVQLQESGPGLVKPSETLSLTCTVSGFSLSKYGVHWIRQPPGKGLEWLGVLRAGGTISYNSALMSRLTISEDISKSQVSLKLSSVTAADTAVYYCARDHYYYSSFGGFASWGQGTLVTVSS VL: DIQMTQSPSSVSASVGDRVTITCLASQTIGAWLAWYQQKPGKSPKLLIYAATRLADGVPSRFSGSGSGTDFTLTISSLQPEDFATYYCQQLNSTPYTFGQGTKVEIKR	0.361	0.9	0.175	1.06	1.76	0.000527	300000	0.176
871G1-HuG (antibody, human IgG4 S228P, kappa, V domains shown, Humanized; also called humanized antibody 871G1-HuG) VH: QVQLQESGPGLVKPSETLSLTCTVSGFSLSKYGVHWIRQPPGKGLEWIGVLRAGGTISYNSALMSRVTISVDTSKNQFSLKLSSVTAADTAVYYCARDHYYYSSFGGFASWGQGTLVTVSS VL: DIQMTQSPSSVSASVGDRVTITCLASQTIGAWLAWYQQKPGKSPKLLIYAATRLADGVPSRFSGSGSGTDFTLTISSLQPEDFATYYCQQLNSTPYTFGQGTKVEIKR	–	–	–	–	–	–	–	0.187
874F7-HuG (antibody, human IgG4 S228P, kappa, V domains shown, Humanized; also called 874F7-Hµg; humanized antibody 874F7-HuG) VH: QVQLQESGPGLVKPSETLSLTCTVSGFSLSKYGVHWIRQPPGKGLEWIGVLRAGGSTGYNSALMSRVTISVDTSKNQFSLKLSSVTAADTAVYYCARDHYYYSSYGGFVYWGQGTLVTVSS VL: DIQMTQSPSSVSASVGDRVTITCLASQTIGAWLAWYQQKPGKSPKLLIYAATRLADGVPSRFSGSGSGTDFTLTISSLQPEDFATYYCQQLDSSPYTFGQGTKVEIKR	–	–	–	–	–	–	–	0.17
874F7-Hu2 (antibody, human IgG4 S228P, kappa, V domains shown, Humanized; also called humanized antibody 874F7-Hu2) VH: QVQLQESGPGLVKPSETLSLTCTVSGFSLSKYGVHWIRQPPGKGLEWLGVLRAGGSTGYNSALMSRLTISKDSSKSQVSLKLSSVTAADTAVYYCVRDHYYYSSYGGFVYWGQGTLVTVSS VL: DIQMTQSPSSVSASVGDRVTITCLASQTIGAWLAWYQQKPGKSPKLLIYAATRLADGVPSRFSGSGSGTDFTLTISSLQPEDFATYYCQQLDSSPYTFGQGTKVEIKR	0.35	1.56	0.05	1.74	2.97	0.000576	194000	0.136
864F3-Hu1 (antibody, human IgG4 S228P, kappa, V domains shown, Humanized; also called humanized antibody 864F3-Hu1) VH: QVQLQESGPGLVKPSETLSLTCTVSGFSLTNYGVHWIRLPPGKGLEWIGVIRAGGSSDYNSALMSRVTISKDNSKSQVSLKLSSVTAADTAVYYCARDHYFSNSYGGSPYWGQGTLVTVSS VL: DIQMTQSPSSLSASVGDRVTITCLASQTIATWLAWYQQKPGKSPKLLIYAATRLADGVPSRFSGSGSGTDFTLTISSLQPEDFATYYCQQLYNTPYTFGQGTKVEIKR	–	–	–	–	–	–	–	0.249
864F3-Hu2 (antibody, human IgG4 S228P, kappa, V domains shown, Humanized; also called humanized antibody 864F3-Hu2) VH: QVQLQESGPGLVKPSETLSLTCTVSGFSLTNYGVHWVRLPPGKGLEWLGVIRAGGSSDYNSALMSRLTISKDNSKSQVSLKLSSVTAADTAVYYCARDHYFSNSYGGSPYWGQGTLVTVSS VL: DIQMTQSPSSLSASVGDRVTITCLASQTIATWLAWYQQKPGKSPKLLIYAATRLADGVPSRFSGSGSGTDFTLTISSLQPEDFATYYCQQLYNTPYTFGQGTKVEIKR	–	–	–	–	–	–	–	0.181
864F3-HuG (antibody, human IgG4 S228P, kappa, V domains shown, Humanized; also called humanized antibody 864F3-HuG) VH: QVQLQESGPGLVKPSETLSLTCTVSGFSLTNYGVHWIRQPPGKGLEWIGVIRAGGSSDYNSALMSRVTISVDTSKNQFSLKLSSVTAADTAVYYCARDHYFSNSYGGSPYWGQGTLVTVSS VL: DIQMTQSPSSLSASVGDRVTITCLASQTIATWLAWYQQKPGKSPKLLIYAATRLADGVPSRFSGSGSGTDFTLTISSLQPEDFATYYCQQLYNTPYTFGQGTKVEIKR	–	–	–	–	–	–	–	0.76
